B1: BG4–25 Fab (Fab, V domains shown)
VH: EVQLVESGGGLIQPGGSLRLSCAASGITVVRNYMTWVRQAPGKGLEWVSVIYSGGTTYYADSVKGRFTISRDNSKNTMYLQMNSLRAEDTAIYYCARDLEVVGAMDVWGQGTTVTVSS
VL: EIVLTQSPGTLSLSPGERATLSCRASQSVPSSYLAWYQQKPGQAPRLLIYGASSRATGIPDRFSGSGSGTDFTLTISRLEPEDFAVYYCQQYGSPMYTFGQGTKLEIK
B2: BG4–14 IgG1 (antibody, V domains shown)
VH: not shown
VL: QSALTQPASVSGSPGQSITISCTGTSSDVGSYNLVSWYQHHPGKAPKLMIYEVSKRPSGVSNRFSGSKSGNTASLTISGLQAEDETDYYCCSYAGSSTLVFGGGTKLTVL
B3: BG10–19 IgG1 (antibody, V domains shown)
VH: EVQLVQSGAEVKKPGESLKISCKGSGYSFTSYWIGWVRQMPGKGLEWMGVIYPGDSDTRYSPSFQGQVTISADKSISTAYLQWSSLKASDTAMYYCARTQWGYNYGSHFFYMDVWGKGTTVTVSS
VL: QSVLTQPPSASGTPGQRVTISCSGSSSNIGSDHVYWYQQLPGTAPKLFIYRNNQRPSGVPDRFSGSKSGTSASLAISGLRSEDEADYYCAAWDASLSGYVFGTGTKVTVL
B4: BG10–19 Fab (Fab, V domains shown)
VH: B3 VH
VL: B3 VL

Legend:
[1] = target: T1, SARS-CoV-2 receptor-binding domain (RBD) (SARS-CoV-2, UniProt P0DTC2); test: crystal structure
[2] = target: T1, SARS-CoV-2 receptor-binding domain (RBD); test: ELISA

Row | Binder | binding result [1] | binding result [2]
1 | B1 | binds | 
2 | B2 |  | binds
3 | B3 |  | binds
4 | B4 |  | binds
